This note sets out measurements from ChEMBL document CHEMBL1142160, “Overexpression and initial characterization of the chromosomal aminoglycoside 3'-O-phosphotransferase APH(3')-IIb from Pseudomonas aeruginosa” (2007).

Substrate in series [1]: NC[C@@H]1O[C@@H](O[C@H]2[C@H](O)[C@@H](O[C@H]3O[C@H](CO)[C@@H](O)[C@H](N)[C@H]3O)[C@H](N)C[C@@H]2N)[C@@H](O)[C@H](O)[C@H]1O
As to the kind of experiment: (§1) Activity against Pseudomonas aeruginosa APH(3')-2b expressed in Escherichia coli BL21(DE3) assessed as phosphorylation.

Substrate in series [2]: NCC[C@H](O)C(=O)N[C@@H]1C[C@H](N)[C@@H](O[C@H]2O[C@H](CN)[C@@H](O)[C@H](O)[C@H]2O)[C@H](O)[C@H]1O[C@H]1O[C@H](CO)[C@@H](O)[C@H](N)[C@H]1O
Described as §1.

Substrate in series [3]: NC[C@H]1O[C@H](O[C@H]2[C@H](O[C@@H]3O[C@H](CO)[C@@H](O)[C@H]3O)[C@@H](O)[C@H](N)C[C@@H]2N)[C@H](N)[C@@H](O)[C@@H]1O
Described as §1.

Substrate in series [4]: NC[C@H]1O[C@H](O[C@H]2[C@H](O)[C@@H](O)[C@H](N)C[C@@H]2N)[C@H](N)[C@@H](O)[C@@H]1O
The description is as §1.

Substrate in series [5]: NC[C@@H]1O[C@H](O[C@H]2[C@@H](O)[C@H](O[C@@H]3[C@@H](O)[C@H](N)C[C@H](N)[C@H]3O[C@H]3O[C@H](CN)[C@@H](O)[C@H](O)[C@H]3N)O[C@@H]2CO)[C@H](N)[C@@H](O)[C@@H]1O
The description is as §1.

Substrate in series [6]: NC[C@@H]1O[C@@H](O[C@H]2[C@H](O)[C@@H](O[C@H]3O[C@H](CO)[C@@H](O)[C@H](N)[C@H]3O)[C@H](N)C[C@@H]2N)[C@@H](O)[C@H](O)[C@H]1O
As to the kind of experiment: (§2) Ratio of kcat to km for PH(3')-2b activity. To be noted: Pseudomonas aeruginosa.

Substrate in series [7]: NCC[C@H](O)C(=O)N[C@@H]1C[C@H](N)[C@@H](O[C@H]2O[C@H](CN)[C@@H](O)[C@H](O)[C@H]2O)[C@H](O)[C@H]1O[C@H]1O[C@H](CO)[C@@H](O)[C@H](N)[C@H]1O
The series is described as §2. As to conditions: Pseudomonas aeruginosa.

Substrate in series [8]: NC[C@H]1O[C@H](O[C@H]2[C@H](O[C@@H]3O[C@H](CO)[C@@H](O)[C@H]3O)[C@@H](O)[C@H](N)C[C@@H]2N)[C@H](N)[C@@H](O)[C@@H]1O
The series is described as §2. To be noted: Pseudomonas aeruginosa.

Substrate in series [9]: NC[C@H]1O[C@H](O[C@H]2[C@H](O)[C@@H](O)[C@H](N)C[C@@H]2N)[C@H](N)[C@@H](O)[C@@H]1O
The description is as §2. To be noted: Pseudomonas aeruginosa.

Substrate in series [10]: NC[C@@H]1O[C@H](O[C@H]2[C@@H](O)[C@H](O[C@@H]3[C@@H](O)[C@H](N)C[C@H](N)[C@H]3O[C@H]3O[C@H](CN)[C@@H](O)[C@H](O)[C@H]3N)O[C@@H]2CO)[C@H](N)[C@@H](O)[C@@H]1O
Described as §2. To be noted: Pseudomonas aeruginosa.

Usually Km stands for the concentration of substrate that gives half-maximal velocity. The kcat/Km is the second-order rate constant that governs catalysis at low substrate concentration.

B1: Aminoglycoside 3'-phosphotransferase type IIb (Pseudomonas aeruginosa (strain ATCC 15692 / PAO1 / 1C / PRS 101 / LMG12228)), Q9HWR2 (protein)
chain: MHDAATSMPPQAPSTWADYLAGYRWRGQGEGCSAATVHRLEAARRPTLFVKQEVLSAHAELPAEIARLRWLHGAGIDCPQVLNETQSDGRQWLLMSAVPGDTLSALAQRGELEPERLVRLVAAALRRLHDLDPAACPFDHRLERRLDTVRQRVEAGLVDEADFDDDHRGRSATELYRLLLDRRPAVEDLVVAHGDACLPNLLAEGRRFSGFIDCGRLGVADRHQDLALAARDIEAELGAAWAEAFLVEYGGDIDGERLAYFRLLDEFF
Take B1: the Km in [1] was found to be 3.1 µM; in series [2], 440 µM; in series [3], 10 µM; in [4], 10.3 µM; in series [5], 17.5 µM. In addition, the specificity constant (kcat/Km) came to 360000 M⁻¹ s⁻¹ in series [6]; 400000 M⁻¹ s⁻¹ in series [7]; 190000 M⁻¹ s⁻¹ in series [8]; 170000 M⁻¹ s⁻¹ in [9]; 120000 M⁻¹ s⁻¹ in series [10].
